{"source": "patent US20210130452A1", "about": "(Merck KGaA, published 2021)", "key": {"[1]": {"target": "T1, human IL-17A (human, UniProt Q16552 24-155)", "test": "cell-based or functional assay", "T1 sequence (Q16552 other isoform, or with tags, fused parts or gaps)": "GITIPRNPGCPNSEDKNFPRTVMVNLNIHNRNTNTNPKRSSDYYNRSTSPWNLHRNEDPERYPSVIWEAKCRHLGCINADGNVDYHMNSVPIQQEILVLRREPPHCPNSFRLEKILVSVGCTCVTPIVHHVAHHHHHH"}, "[2]": {"target": "T2, human IL-17F (human, UniProt Q96PD4 31-163)", "T2 sequence": "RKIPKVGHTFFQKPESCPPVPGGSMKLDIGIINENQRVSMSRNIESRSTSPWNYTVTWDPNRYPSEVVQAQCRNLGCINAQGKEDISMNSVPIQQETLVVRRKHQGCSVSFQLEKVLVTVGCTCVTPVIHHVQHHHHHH", "test": "cell-based or functional assay"}, "[3]": {"target": "T2, human IL-17F", "test": "KinExA, 100 pM Nanobody"}, "[4]": {"target": "T1, human IL-17A", "test": "competition ELISA IL17A-RA"}, "[5]": {"target": "T1, human IL-17A", "test": "ELISA, coated IL-17A"}, "[6]": {"target": "T3, marmoset IL-17A (marmoset, IL-17A is a disulfide-linked homodimer. One chain is given.)", "T3 chain": "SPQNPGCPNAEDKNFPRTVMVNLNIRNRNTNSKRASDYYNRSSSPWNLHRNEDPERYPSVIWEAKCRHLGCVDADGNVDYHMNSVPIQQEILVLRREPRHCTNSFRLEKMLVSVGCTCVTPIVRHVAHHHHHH", "test": "ELISA, coated IL-17A"}, "[7]": {"target": "T4, mouse IL-17A (mouse, UniProt Q62386 26-158)", "T4 sequence (looked up)": "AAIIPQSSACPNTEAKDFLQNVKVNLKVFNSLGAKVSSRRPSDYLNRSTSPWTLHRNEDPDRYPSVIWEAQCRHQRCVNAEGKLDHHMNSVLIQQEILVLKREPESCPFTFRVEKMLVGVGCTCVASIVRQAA", "test": "ELISA, coated IL-17A"}, "[8]": {"target": "T5, rat IL-17A (rat, UniProt Q61453 18-150, limits assumed)", "T5 sequence (looked up)": "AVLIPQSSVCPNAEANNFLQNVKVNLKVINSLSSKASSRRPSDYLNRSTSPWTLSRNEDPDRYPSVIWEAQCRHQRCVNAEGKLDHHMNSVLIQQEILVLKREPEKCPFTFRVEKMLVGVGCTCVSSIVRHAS", "test": "ELISA, coated IL-17A"}, "[9]": {"target": "guinea pig IL-17A (guinea pig)", "test": "ELISA, coated IL-17A"}, "[10]": {"target": "T2, human IL-17F", "test": "ELISA, coated IL-17F;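 further: binding ELISA on coated antigen from various species, with bound Nanobodies revealed by an HRP-linked anti-myc antibody and esTMB substrate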"}, "[11]": {"target": "T6, marmoset IL-17F (marmoset, UniProt A6N6I9 31-163)", "T6 sequence (looked up)": "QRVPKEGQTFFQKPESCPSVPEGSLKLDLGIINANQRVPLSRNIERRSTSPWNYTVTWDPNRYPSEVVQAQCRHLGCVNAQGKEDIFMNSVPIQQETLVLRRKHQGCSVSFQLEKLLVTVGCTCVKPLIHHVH", "test": "ELISA, coated IL-17F"}, "[12]": {"target": "T7, mouse IL-17F (mouse, UniProt Q7TNI7 29-161)", "T7 sequence (looked up)": "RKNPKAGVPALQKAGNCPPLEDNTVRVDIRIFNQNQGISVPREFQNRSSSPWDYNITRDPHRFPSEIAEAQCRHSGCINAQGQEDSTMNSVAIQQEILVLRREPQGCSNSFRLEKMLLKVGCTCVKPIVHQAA", "test": "ELISA, coated IL-17F"}, "[13]": {"target": "T8, rat IL-17F (rat, UniProt Q5BJ95 29-161)", "T8 sequence (looked up)": "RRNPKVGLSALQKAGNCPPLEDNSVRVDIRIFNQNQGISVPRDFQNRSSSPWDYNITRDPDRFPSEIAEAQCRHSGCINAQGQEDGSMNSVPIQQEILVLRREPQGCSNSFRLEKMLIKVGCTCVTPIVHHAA", "test": "ELISA, coated IL-17F"}, "[14]": {"target": "T1, human IL-17A", "test": "KinExA, 500 pM Nanobody"}, "[15]": {"target": "T2, human IL-17F", "test": "KinExA, 500 pM Nanobody"}, "[16]": {"target": "T2, human IL-17F", "test": "competition ELISA IL17F-RC"}, "[17]": {"target": "T1, human IL-17A", "test": "SPR, IL-17A-Nanobody complex over captured IL-17RA"}, "[18]": {"target": "T2, human IL-17F", "test": "SPR, IL-17F-Nanobody complex over captured IL-17RC"}, "[19]": {"target": "T9, human IL-17A (human, UniProt Q16552 24-155)", "T9 construct": "secreted form made in Hek293 cells (GenBank U32659); also called hIL-17A; hIL17A", "test": "AlphaScreen hIL-17A-IL-17RA; vs IL17MS13B03", "T9 sequence (Q16552 other isoform, or with tags, fused parts or gaps)": "as the sequence (Q16552 other isoform, or with tags, fused parts or gaps) above"}, "[20]": {"target": "T10, human IL-17F (human, UniProt Q96PD4 31-163)", "T10 construct": "made in Hek293 cells (GenBank AF384857); also called hIL-17F; hIL17F", "T10 sequence": "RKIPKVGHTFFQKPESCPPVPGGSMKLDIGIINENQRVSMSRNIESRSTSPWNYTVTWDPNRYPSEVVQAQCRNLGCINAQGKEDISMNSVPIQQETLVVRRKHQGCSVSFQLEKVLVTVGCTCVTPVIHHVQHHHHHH", "test": "AlphaScreen hIL-17F-IL-17RC; vs IL17MS13B03"}, "[21]": {"target": "T9, human IL-17A", "test": "SPR (Biacore) off-rate"}, "[22]": {"target": "T10, human IL-17F", "test": "SPR (Biacore) off-rate"}, "[23]": {"target": "T11, human IL-17A/F heterodimer (human, UniProt Q16552 24-155; Q96PD4 31-163, limits assumed)", "T11 construct": "bought, made in E. coli (R&D Systems 5194-IL/CF); also called hIL-17A/F; hIL17A/F", "T11 sequence (Q16552 24-155 limits assumed, one chain of several)": "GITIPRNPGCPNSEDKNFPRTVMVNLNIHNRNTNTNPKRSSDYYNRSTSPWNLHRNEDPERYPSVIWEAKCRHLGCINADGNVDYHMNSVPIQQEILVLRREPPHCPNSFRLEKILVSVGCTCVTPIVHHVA", "test": "SPR (Biacore) off-rate"}, "[24]": {"target": "T12, Cynomolgus monkey IL-17A (Cynomolgus monkey, UniProt A0A2K5TTB0 24-155)", "T12 construct": "also called cyno IL-17A; cIL-17A", "T12 sequence (A0A2K5TTB0 entry or part of it)": "as the sequence (Q16552 24-155 limits assumed, one chain of several) above, with T3A, P8S, N34S, I77V, N78K, P104R counted along it", "test": "SPR (Biacore) off-rate"}, "[25]": {"target": "T13, Cynomolgus monkey IL-17F (Cynomolgus monkey, UniProt G7P4V0 31-163)", "T13 construct": "also called cyno IL-17F; cIL-17F", "T13 sequence": "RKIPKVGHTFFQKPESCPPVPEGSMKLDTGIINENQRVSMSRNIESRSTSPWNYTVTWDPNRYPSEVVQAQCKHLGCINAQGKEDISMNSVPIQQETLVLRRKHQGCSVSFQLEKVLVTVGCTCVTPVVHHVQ", "test": "SPR (Biacore) off-rate"}, "[26]": {"target": "T9, human IL-17A", "test": "cell-based or functional assay", "remark": "listed apart in the source"}, "[27]": {"target": "T10, human IL-17F", "test": "cell-based or functional assay", "remark": "listed apart in the source"}, "[28]": {"target": "T11, human IL-17A/F heterodimer", "test": "cell-based or functional assay"}, "[29]": {"target": "T13, Cynomolgus monkey IL-17F", "test": "cell-based or functional assay"}}, "data": [{"binder": "SH-Fc-(GS)2-13B03 (Fc fusion, not shown: a dimerising Fc or GST; small tags and cut ends, also called MSB0010618; SH-(GS)2-Fc-13B03) EVQLVESGGGSVQAGDSLRLSCAASGRANSINWFGWFRQTPGKEREFVAGIRWSDAYTEYANSVKGRFTISRDNAKNTVDLQMDSLKPEDTAVYYCVLDLSTVRYWGQGTQVTVSS", "values": [{"measurement": "Emax, hIL-17A induced IL-6, HT-1080, without HSA", "setting": "[1]", "value": 100, "unit": "%"}, {"measurement": "IC50, hIL-17A induced IL-6, HT-1080, without HSA", "setting": "[1]", "value": 0.37, "unit": "nM"}, {"measurement": "IC50, hIL-17F induced IL-6, HT-1080, without HSA", "setting": "[2]", "value": 5.7, "unit": "nM"}, {"measurement": "Kd", "setting": "[3]", "value": 0.145, "unit": "nM"}, {"measurement": "IC50", "setting": "[4]", "value": 0.044, "unit": "nM"}]}, {"binder": "13B03 (VHH, Class 4; also called IL17MS13B03) VHH: EVQLVESGGGSVQAGDSLRLSCAASGRANSINWFGWFRQTPGKEREFVAGIRWSDAYTEYANSVKGRFTISRDNAKNTVDLQMDSLKPEDTAVYYCVLDLSTVRYWGQGTQVTVSS", "values": [{"measurement": "OD", "setting": "[5]", "value": 1.95, "unit": "OD"}, {"measurement": "OD", "setting": "[6]", "value": 1.94, "unit": "OD"}, {"measurement": "OD", "setting": "[7]", "value": -0.001, "unit": "OD"}, {"measurement": "OD", "setting": "[8]", "value": 0.004, "unit": "OD"}, {"measurement": "OD", "setting": "[9]", "value": 0.004, "unit": "OD"}, {"measurement": "OD", "setting": "[10]", "value": 1.66, "unit": "OD"}, {"measurement": "OD", "setting": "[11]", "value": 1.33, "unit": "OD"}, {"measurement": "OD", "setting": "[12]", "value": -0.0005, "unit": "OD"}, {"measurement": "OD", "setting": "[13]", "value": 0.0085, "unit": "OD"}, {"measurement": "Kd", "setting": "[14]", "value": 0.0225, "unit": "nM"}, {"measurement": "Kd", "setting": "[15]", "value": 4.91, "unit": "nM"}, {"measurement": "IC50", "setting": "[4]", "value": 0.121, "unit": "nM"}, {"measurement": "IC50", "setting": "[16]", "value": 91.6, "unit": "nM"}, {"measurement": "% Biacore binding (IL-17A-NB)-IL-17RA", "setting": "[17]", "value": -2.24, "unit": "%"}, {"measurement": "% Biacore binding (IL-17F-NB)-IL-17RC", "setting": "[18]", "value": 15.7, "unit": "%"}]}, {"binder": "IL17MS3068 (VHH, variant of IL17MS13B03; Kabat numbering) VHH: EVQLVESGGGLVQPGGSLRLSCAASGRASSINWMGWFRQAPGKEREFVAGIRWSDAYTEYADSVKGRFTISRDNSKNTVYLQMNSLRPEDTAVYYCVLDLSTVRYWGQGTLVTVSS", "values": [{"measurement": "IC50 fold difference compared to WT", "setting": "[19]", "value": 1.2, "unit": "fold"}, {"measurement": "IC50 fold difference compared to WT", "setting": "[20]", "value": 0.2, "unit": "fold"}]}, {"binder": "IL17MS3067 (VHH, variant of IL17MS13B03; Kabat numbering) VHH: DVQLVESGGGLVQPGGSLRLSCAASGRASSINWMGWFRQAPGKEREFVAGIRWSDAYTEYADSVKGRFTISRDNSKNTVYLQMNSLRPEDTAVYYCVLDLSTVRYWGQGTLVTVSS", "values": [{"measurement": "koff", "setting": "[21]", "value": 0.000133, "unit": "s⁻¹"}, {"measurement": "koff", "setting": "[22]", "value": 0.00138, "unit": "s⁻¹"}, {"measurement": "koff", "setting": "[23]", "value": 0.000183, "unit": "s⁻¹"}, {"measurement": "koff", "setting": "[24]", "value": 0.000126, "unit": "s⁻¹"}, {"measurement": "koff", "setting": "[25]", "value": 0.00166, "unit": "s⁻¹"}, {"measurement": "IC50 cell based assay hIL17A", "setting": "[26]", "value": 0.7, "unit": "nM"}, {"measurement": "IC50 cell based assay hIL17F", "setting": "[27]", "value": 35, "unit": "nM"}, {"measurement": "IC50 cell based assay hIL17A/F", "setting": "[28]", "value": 1.8, "unit": "nM"}, {"measurement": "IC50 cell based assay cyno IL17F", "setting": "[29]", "value": 13, "unit": "nM"}, {"measurement": "IC50 fold difference compared to WT", "setting": "[19]", "value": 1.3, "unit": "fold"}, {"measurement": "IC50 fold difference compared to WT", "setting": "[20]", "value": 0.2, "unit": "fold"}]}]}
